Settings in all cases: both partners purified
Test [1] concerns the target T1, Aeropyrum pernix elongation factor aEF1A (ApeEF1A) (Aeropyrum pernix, UniProt Q9YAV0 1-437).
T1 construct: elongation factor 1-alpha (aEF1A) of Aeropyrum pernix; also called ApeEF1A•GTP; wild type ApeEF1A
T1 sequence (looked up): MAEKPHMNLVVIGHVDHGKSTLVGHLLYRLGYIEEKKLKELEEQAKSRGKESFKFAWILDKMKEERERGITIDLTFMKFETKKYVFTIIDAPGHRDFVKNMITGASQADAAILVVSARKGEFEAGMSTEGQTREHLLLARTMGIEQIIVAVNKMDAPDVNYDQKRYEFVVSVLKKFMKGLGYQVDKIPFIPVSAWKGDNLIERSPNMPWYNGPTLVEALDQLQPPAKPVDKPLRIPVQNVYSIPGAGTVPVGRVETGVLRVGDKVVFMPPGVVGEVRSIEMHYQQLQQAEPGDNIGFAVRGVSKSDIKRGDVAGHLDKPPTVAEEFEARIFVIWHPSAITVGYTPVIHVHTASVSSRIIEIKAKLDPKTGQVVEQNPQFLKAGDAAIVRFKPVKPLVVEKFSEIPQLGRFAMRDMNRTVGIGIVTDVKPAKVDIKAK
The experiment in a line: crystal structure; ApeP1C17•ApeEF1A•GTP•ApePelota complex, sitting drop vapor diffusion at 20 °C, 3.0 Å.

Test [2] has as its target T2, PhoEF1A•GTP•PfuPelota complex (P. horikoshii | Pyrococcus furiosus, UniProt O59153 1-428; Q8U150 1-356).
T2 construct: aPelota of Pyrococcus furiosus; Complex of m2 (GTP form) and m3, titrated as a complex in fluorescence polarisation; also called aEF1A•GTP•aPelota; source: E. coli, each protein purified, then complexed with GTP
T2 sequence 1: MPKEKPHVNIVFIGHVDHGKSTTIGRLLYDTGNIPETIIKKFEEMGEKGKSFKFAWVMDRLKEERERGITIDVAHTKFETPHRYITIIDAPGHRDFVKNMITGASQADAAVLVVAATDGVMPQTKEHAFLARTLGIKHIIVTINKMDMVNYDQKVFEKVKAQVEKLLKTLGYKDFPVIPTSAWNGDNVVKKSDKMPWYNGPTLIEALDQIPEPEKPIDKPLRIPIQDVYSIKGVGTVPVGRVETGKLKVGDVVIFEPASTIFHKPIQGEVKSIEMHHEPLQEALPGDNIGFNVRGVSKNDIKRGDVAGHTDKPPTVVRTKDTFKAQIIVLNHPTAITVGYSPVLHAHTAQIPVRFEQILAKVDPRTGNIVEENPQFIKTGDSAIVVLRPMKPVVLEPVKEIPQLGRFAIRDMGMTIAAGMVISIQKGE
T2 sequence 2: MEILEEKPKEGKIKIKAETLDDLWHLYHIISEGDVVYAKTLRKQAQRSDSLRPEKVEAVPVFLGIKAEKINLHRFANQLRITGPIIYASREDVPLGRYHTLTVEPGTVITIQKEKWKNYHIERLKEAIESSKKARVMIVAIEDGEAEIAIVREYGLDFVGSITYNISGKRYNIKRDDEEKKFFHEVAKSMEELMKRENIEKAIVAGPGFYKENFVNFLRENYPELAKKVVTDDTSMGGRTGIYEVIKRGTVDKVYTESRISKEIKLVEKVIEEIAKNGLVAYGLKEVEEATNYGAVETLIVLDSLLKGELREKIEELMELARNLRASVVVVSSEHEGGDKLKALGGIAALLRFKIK
The experiment in a line: fluorescence polarisation; FITC-labelled peptide (50 nM) with 0-160 µM PhoEF1A•GTP•PfuPelota complex in FP buffer (20 mM HEPES-KOH pH 7.6, 10 mM MgCl2, 150 mM KCl, 0.1 mg/ml BSA), 25 °C; one site specific binding fit.

In test [3] the target is T3, Pyrococcus horikoshii elongation factor aEF1A (PhoEF1A) (P. horikoshii, UniProt O59153 1-428).
T3 construct: elongation factor 1-alpha (aEF1A) of Pyrococcus horikoshii; the nucleotide is named in the assay's format; also called PhoEF1A•GTP; PhoEF1A•GDP
T3 sequence: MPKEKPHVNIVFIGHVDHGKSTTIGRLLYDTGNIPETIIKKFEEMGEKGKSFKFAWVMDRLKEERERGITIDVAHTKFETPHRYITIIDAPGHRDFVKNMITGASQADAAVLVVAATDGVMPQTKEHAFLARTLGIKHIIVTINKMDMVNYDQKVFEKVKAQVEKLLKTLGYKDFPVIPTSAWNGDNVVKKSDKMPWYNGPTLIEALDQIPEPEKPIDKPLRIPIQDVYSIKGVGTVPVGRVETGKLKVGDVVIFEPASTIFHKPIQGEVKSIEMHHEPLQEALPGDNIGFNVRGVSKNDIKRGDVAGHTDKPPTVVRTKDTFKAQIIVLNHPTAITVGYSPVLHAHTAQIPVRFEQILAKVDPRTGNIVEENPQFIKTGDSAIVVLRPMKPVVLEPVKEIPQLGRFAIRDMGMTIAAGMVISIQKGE
Briefly: fluorescence polarisation; FITC-labelled PhoP1C14 with increasing PhoEF1A•GDP complex; same assay as for the GTP complex. On the technique in general: Fluorescence polarisation rises when a labelled molecule tumbles more slowly, as on binding a larger partner.

The target in test [4] is T1, Aeropyrum pernix elongation factor …. Briefly: pull-down; MBP-P1 fusion held on amylose resin; EF1A (1,000 pmol), Pelota (1,000 pmol) and equal amounts of MBP-P1 in 100 µl PD buffer (25 mM Tris-HCl pH 8.0, 200 mM NaCl, 10 mM MgCl2, 1 mM GTP), 4 °C, 90 min; eluted with 50 mM maltose; SDS-PAGE, CBB staining.
Test [5] deals with T3, Pyrococcus horikoshii elongation factor …. Described as above.

Primed or numbered codes have the meaning given here. Where no end group is shown, it is not given here. FITC′ = fluorescein isothiocyanate label

The term Kd denotes the equilibrium constant for the complex coming apart. Read a high Kd as weaker binding.

B1: Aeropyrum pernix aPelota (ApePelota) (natural protein, A. pernix, UniProt Q9YAZ5 1-356, looked up)
chain: MRVEVLDNKRRIVRLRPESEEDLWLLRITLRPGDVVRIRTSRDVPVGSGRKERVVMTLRIRLDSIEFQPFTGKLRISGIVVEGPDEFGVKGRRHSTAVSIGTWLVVERDKGWSEQELERLASGRARGTAVIAAVDYDEFALAVLAGHGMKILEDTSARLPGKDDPSREQEVEKYVDRAAKRIVEEAARHRSPIAVIAGPGQLKTSVAEKVQRAMPSLKVATVDTSMGGVAGVREALRRESVTRILRELSIVEAEGVLEEFLRRIAKSRDTVAYTPGEVLAVARMGAVDTVLLVDTLLHSPDDAVREAVDEALRLVESMGGRVIIIPGDSPAGERLVSFGGVIALLRYPVPQEARRL
notes: aPelota of Aeropyrum pernix
On to B1, for which the binding result in test [1] is reported as “binds”.

B2: C-terminal 14-mer peptide of P. horikoshii aP1 (PhoP1C14), FITC-labelled (peptide)
peptide: {FITC′}-SEEEALAGLSALFG
notes: C-terminal 14 residues of P. horikoshii ribosomal stalk protein aP1 (last residues L106, F107, G108); also called WT; C-terminal peptide; source: synthetic peptide (Hokkaido System Science)
For B2, the Kd is 23.6 µM in test [2] and 10.4 µM in test [3].

B3: C-terminal 17-mer peptide of A. pernix aP1 (ApeP1C17) (peptide)
peptide: KKEEEVDLSGLSGMFGF
notes: C-terminal 17 residues of Aeropyrum pernix ribosomal stalk protein aP1 (ends at F111); also called aP1C17; aP1-CTD; source: synthetic peptide (Hokkaido System Science)
For the molecule B3, the binding result in test [1] was “binds”.

B4: N-terminal MBP fused with the C-terminal 15 amino acid residues of A. pernix aP1 (MBP-ApeP1C15) (domain or fragment)
chain: EEEVDLSGLSGMFGF
notes: Vector pMAL-c4x, EcoRI-PstI; not shown: MBP, N-terminal, kept
On to B4, for which, in test [4], the binding result is “binds”.

B5: maltose-binding protein fused to the C-terminal 14 amino acid sequence of PhoP1 (MBP-PhoP1C14) (domain or fragment, P. horikoshii)
chain: SEEEALAGLSALFG
notes: C-terminal 14 residues of P. horikoshii ribosomal stalk protein aP1; made by removing residues 61-94 from pMAL-c4x-aP1[61-108]; the 14 residues are identical in both species; Vector pMAL-c4x; also called MBP-PfuP1C14; not shown: MBP, N-terminal, kept
Take B5: in test [5], the binding result is “binds”.

B6: Pyrococcus furiosus aPelota (PfuPelota) (natural protein, UniProt Q8U150 1-356, looked up)
chain: MEILEEKPKEGKIKIKAETLDDLWHLYHIISEGDVVYAKTLRKQAQRSDSLRPEKVEAVPVFLGIKAEKINLHRFANQLRITGPIIYASREDVPLGRYHTLTVEPGTVITIQKEKWKNYHIERLKEAIESSKKARVMIVAIEDGEAEIAIVREYGLDFVGSITYNISGKRYNIKRDDEEKKFFHEVAKSMEELMKRENIEKAIVAGPGFYKENFVNFLRENYPELAKKVVTDDTSMGGRTGIYEVIKRGTVDKVYTESRISKEIKLVEKVIEEIAKNGLVAYGLKEVEEATNYGAVETLIVLDSLLKGELREKIEELMELARNLRASVVVVSSEHEGGDKLKALGGIAALLRFKIK
notes: aPelota of Pyrococcus furiosus
Regarding B6, the binding result in test [5] was “binds”.

For the origin of these results see article PMC6791870, “Switch of the interactions between the ribosomal stalk and EF1A in the GTP- and GDP-bound conformations” (Scientific Reports, 2019).
